Substitutions are numbered along the chain they refer to. Read-outs that look alike come from different tables or passages of the source. One block for each binder: values may come before it.
What was measured:
[1] = target: T1, cyno MUC1-C on stably transfected CHOK1 cells (cyno); experiment: FACS, CHOK1-cyno-MUC1-C
T1 construct: domain: MUC1-C; also called CHOK1-cyno-MUC1-C cells; Monkey MUC1-CT

[2] = target: T2, MUC1-C-L-6×His (His-tagged human MUC1-C protein extracellular domain) (human, UniProt P15941 961-1152); experiment: ELISA, coated antigen, hybridoma supernatant
T2 construct: template human MUC1 UniProt P15941; expressed in 293 cells; also called hMUC1-C-L-his; MUC1-C-L-His
T2 sequence (P15941 other isoform, or with tags, fused parts or gaps): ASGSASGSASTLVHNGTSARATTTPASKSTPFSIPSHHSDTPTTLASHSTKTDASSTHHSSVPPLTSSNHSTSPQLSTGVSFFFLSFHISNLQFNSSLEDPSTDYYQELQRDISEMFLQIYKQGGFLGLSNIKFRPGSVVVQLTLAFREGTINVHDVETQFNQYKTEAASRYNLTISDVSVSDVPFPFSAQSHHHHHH

human EGFR-His antigen [3] = target: T3, human EGFR-His antigen (human, UniProt P00533 25-645); experiment: SPR Biacore 8K, antibody on Protein A chip, 1:1 fit
T3 construct: also called hEGFR-His

human EGFR-His antigen [4] = target: T3, human EGFR-His antigen; experiment: as above; remark: listed apart in the source

B1: ChiM6 (antibody, human IgG1, kappa, V domains shown)
VH: QVQLQQSGAELMKPGASVKLSCKATGYRFIPYWIEWIKERPGHGLEWIGEILPGTGRTNYNEKFKGKATFTADTSSNTAYMQLSSLTTEDSAIYYCARYGDDTSGGYYAVDYWGQGTSVTVSS
VL: DIVMTQSSASLAMSLGQRATISCRASESVNILGTNLIHWYQQKPGQPPKLLIYHASNLETGVPARFSGSGSRTDFTLTIDPVEEDDVAIYYCLQSRKIPWTFGGGTKLEIKR
notes: murine variable regions on human IgG1 constant regions; also called chimeric antibody of M6
Emax [1]: 70900

B2: M4 (antibody of hybridoma 17F3) (antibody, V domains shown)
VH: QVQLQQSGAELARPGASVKLSCKASGYSFTTYGVPWVKQRTGQGLEWIGDIYPRSGNTYYNEKFKGKATLTADKSSDTVFMELRSLSSEDSAVYFCAREDYDNYPYALDYWGQGTSVTVSS
VL: EIVLTQSPAIIAASPGEKVTITCSASSSVFNMNWYQQKPGSSPKIWIYDISKLASGVPGRFSGSGSGTSFSLTINSMEAEDVGTYYCQQRSFYPPTFGGGTKVEIK
notes: murine antibody tested as hybridoma supernatant; also called hybridoma supernatant 17F3
OD450 nm [2]: 1.9

B3: ChiM4 (antibody, human IgG1, kappa, V domains shown)
VH: B2 VH
VL: EIVLTQSPAIIAASPGEKVTITCSASSSVFNMNWYQQKPGSSPKIWIYDISKLASGVPGRFSGSGSGTSFSLTINSMEAEDVGTYYCQQRSFYPPTFGGGTKVEIKR
notes: murine variable regions on human IgG1 constant regions; also called chimeric antibody of M4
Emax [1]: 79500

B4: M4H1L1-ZalH′ (bispecific antibody, human IgG1, kappa)
heavy: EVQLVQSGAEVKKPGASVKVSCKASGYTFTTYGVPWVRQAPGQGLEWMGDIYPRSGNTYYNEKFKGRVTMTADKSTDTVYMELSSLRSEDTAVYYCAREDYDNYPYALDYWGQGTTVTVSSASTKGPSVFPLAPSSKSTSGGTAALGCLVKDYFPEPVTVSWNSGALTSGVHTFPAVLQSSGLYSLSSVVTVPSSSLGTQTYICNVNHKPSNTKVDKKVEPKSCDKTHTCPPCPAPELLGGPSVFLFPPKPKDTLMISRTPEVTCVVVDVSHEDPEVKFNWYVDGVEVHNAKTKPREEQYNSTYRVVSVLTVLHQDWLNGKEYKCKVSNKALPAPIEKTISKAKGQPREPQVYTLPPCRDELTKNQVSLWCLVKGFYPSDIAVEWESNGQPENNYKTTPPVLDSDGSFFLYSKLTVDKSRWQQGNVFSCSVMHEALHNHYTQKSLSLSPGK
light: DIQMTQSPSSLSASVGDRVTITCSASSSVFNMNWYQQKPGKSPKLWIYDISKLASGVPSRFSGSGSGTDFTLTISSLQPEDFATYYCQQRSFYPPTFGGGTKVEIKRTVAAPSVFIFPPSDEQLKSGTASVVCLLNNFYPREAKVQWKVDNALQSGNSQESVTEQDSKDSTYSLSSTLTLSKADYEKHKVYACEVTHQGLSSPVTKSFNRGEC
chain 1: not shown
chain 2: DIQLTQSPSSLSASVGDRVTITCRASQDISSALVWYQQKPGKAPKLLIYDASSLESGVPSRFSGSESGTDFTLTISSLQPEDFATYYCQQFNSYPLTFGGGTKVEIKGGGGSSGAPRFLTRPKASVVSVGKDATLSCQIVGNPFPQVSWEKDKQPVTAGVRFRLAQDGDLYRLKILDLQLSDSGQYVCRARNAHGEAFACLGLQVDAEA
notes: 1:1 format: MUC1 Fab arm with Fc knob; EGFR arm VH-linker-Titin-Fc hole paired with VL-linker-Obscurin; also called anti-EGFR-MUC1 bispecific antibody
Kd (human EGFR-His antigen [3]): 4.13 nM
koff (human EGFR-His antigen [3]): 0.00072 s⁻¹
kon (human EGFR-His antigen [3]): 174000 M⁻¹ s⁻¹

B5: M4H1L1-ZalH8 (bispecific antibody, human IgG1, kappa)
heavy: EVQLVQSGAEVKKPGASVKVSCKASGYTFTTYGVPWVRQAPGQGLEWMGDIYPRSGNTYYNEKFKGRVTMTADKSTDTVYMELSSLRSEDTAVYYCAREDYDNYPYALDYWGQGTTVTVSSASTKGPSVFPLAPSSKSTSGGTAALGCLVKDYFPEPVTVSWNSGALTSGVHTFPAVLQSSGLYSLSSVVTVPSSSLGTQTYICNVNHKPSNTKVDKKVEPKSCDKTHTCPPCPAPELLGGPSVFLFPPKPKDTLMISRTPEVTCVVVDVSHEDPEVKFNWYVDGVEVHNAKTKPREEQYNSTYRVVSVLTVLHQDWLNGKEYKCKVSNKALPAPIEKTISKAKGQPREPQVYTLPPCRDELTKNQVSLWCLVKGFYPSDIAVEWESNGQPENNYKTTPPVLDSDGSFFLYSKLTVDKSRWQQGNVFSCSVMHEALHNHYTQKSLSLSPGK
light: B4 light
chain 1: not shown
chain 2: B4 chain 2
notes: as for B4
Kd (human EGFR-His antigen [3]): 162 nM
koff (human EGFR-His antigen [3]): 0.0275 s⁻¹
kon (human EGFR-His antigen [3]): 171000 M⁻¹ s⁻¹

B7: M4H1L1-ZalH10 (bispecific antibody, human IgG1, kappa)
heavy: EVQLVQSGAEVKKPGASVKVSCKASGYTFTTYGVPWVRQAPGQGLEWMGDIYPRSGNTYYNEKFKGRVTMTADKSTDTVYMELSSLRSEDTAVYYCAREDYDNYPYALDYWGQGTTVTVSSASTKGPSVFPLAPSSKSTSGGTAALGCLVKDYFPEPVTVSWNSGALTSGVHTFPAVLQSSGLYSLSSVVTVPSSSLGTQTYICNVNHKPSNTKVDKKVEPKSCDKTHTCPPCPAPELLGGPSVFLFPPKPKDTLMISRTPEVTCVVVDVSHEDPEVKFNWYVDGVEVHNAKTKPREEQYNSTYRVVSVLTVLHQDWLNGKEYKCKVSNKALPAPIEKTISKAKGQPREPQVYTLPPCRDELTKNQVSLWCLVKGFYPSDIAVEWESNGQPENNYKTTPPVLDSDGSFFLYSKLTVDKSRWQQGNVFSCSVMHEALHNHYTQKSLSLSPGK
light: B4 light
chain 1: not shown
chain 2: B4 chain 2
notes: as for B4
Kd (human EGFR-His antigen [3]): 56.4 nM
koff (human EGFR-His antigen [3]): 0.0113 s⁻¹
kon (human EGFR-His antigen [3]): 201000 M⁻¹ s⁻¹

B18: ChiF4-1 (antibody, human IgG1, kappa, V domains shown)
VH: QIQLQQSGPELVKPGASVKISCKASGYTFTDNYINWVKQRPGQGLEYIGWIYPGSGNNKFNEKFKGKATLTVDTSSRTAFMQLSSLTFEDSAVYFCARDYPFPSYHYGMDYWGQGTSVTVSS
VL: QILLTQSPAIMSASPGERVTITCSASSSVSYIHWFQQKPGTSPKLWIYSTSNLASGVPPRFSGSGSGTSFSLTVSRMEAEDAATYYCQQRSSYPPTFGGGTKLEIKR
notes: murine variable regions on human IgG1 constant regions; also called chimeric antibody of F4-1
Emax [1]: 41700

B19: F4-1 (antibody of hybridoma 3H6) (antibody, V domains shown)
VH: B18 VH
VL: QILLTQSPAIMSASPGERVTITCSASSSVSYIHWFQQKPGTSPKLWIYSTSNLASGVPPRFSGSGSGTSFSLTVSRMEAEDAATYYCQQRSSYPPTFGGGTKLEIK
notes: murine antibody tested as hybridoma supernatant; also called hybridoma supernatant 3H6
OD450 nm [2]: 2.33

B20: ChiF4-18 (antibody, human IgG1, kappa, V domains shown)
VH: EVQLQQSGAELVRPGSSVKMSCKTSGYTFTSYGINWVKQRPGQGLEWIGYIYLGSDYTEYNEKFKGKATLTSDTTSSTAYMQLSSLTSEDSAIYFCARSAGSLFAYWGQGTLVTVSA
VL: DIQLTQSPSSLSASLGERVSLTCRASQDIGITLNWLQQEPDGTIKRLIYATSSLDSGVPKRFSGSRSGSDYSLTISSLESEDFVDYYCLQYASSPYTFGGGTKLEIKR
notes: murine variable regions on human IgG1 constant regions; also called chimeric antibody of F4-18
Emax [1]: 79800

Next, values leading:

Kd (human EGFR-His antigen [3]): 0.163 nM
koff (human EGFR-His antigen [3]): 4.57e-05 s⁻¹
kon (human EGFR-His antigen [3]): 280000 M⁻¹ s⁻¹
B6: M4H1L1-ZalH13 (bispecific antibody, human IgG1, kappa)
heavy: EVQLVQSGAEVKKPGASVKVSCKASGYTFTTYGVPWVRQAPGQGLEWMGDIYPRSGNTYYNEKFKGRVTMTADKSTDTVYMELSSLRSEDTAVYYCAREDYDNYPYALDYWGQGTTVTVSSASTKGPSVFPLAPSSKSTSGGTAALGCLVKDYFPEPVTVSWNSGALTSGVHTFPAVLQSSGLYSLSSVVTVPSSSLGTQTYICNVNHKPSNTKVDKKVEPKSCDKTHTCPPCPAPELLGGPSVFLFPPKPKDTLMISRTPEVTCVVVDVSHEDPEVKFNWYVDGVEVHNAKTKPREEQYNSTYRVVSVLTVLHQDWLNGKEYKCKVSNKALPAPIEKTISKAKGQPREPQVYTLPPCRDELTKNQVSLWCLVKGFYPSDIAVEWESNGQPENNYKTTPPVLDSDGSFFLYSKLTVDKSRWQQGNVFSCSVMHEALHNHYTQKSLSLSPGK
light: B4 light
chain 1: not shown
chain 2: B4 chain 2
notes: as for B4

Kd (human EGFR-His antigen [4]): 92.9 nM
koff (human EGFR-His antigen [4]): 0.00812 s⁻¹
kon (human EGFR-His antigen [4]): 87400 M⁻¹ s⁻¹
B8: ZalH2 (antibody, human IgG1, kappa, V domains shown)
VH: QVQLVESGGGVVQPGRSLRLSCAASGFTFSTYGMHWVRQAPGKGLEWVAVIWEDGSYKYYGDSVKGRFTISRDNSKNTLYLQMNSLRAEDTAVYYCARDGITMVRGVMKDYFDYWGQGTLVTVSS
VL: DIQLTQSPSSLSASVGDRVTITCRASQDISSALVWYQQKPGKAPKLLIYDASSLESGVPSRFSGSESGTDFTLTISSLQPEDFATYYCQQFNSYPLTFGGGTKVEIKR
notes: anti-EGFR zalutumumab variant, human IgG1

Kd (human EGFR-His antigen [4]): 96.4 nM
koff (human EGFR-His antigen [4]): 0.0125 s⁻¹
kon (human EGFR-His antigen [4]): 129000 M⁻¹ s⁻¹
B9: ZalH5 (antibody, human IgG1, kappa, V domains shown)
VH: B8 VH with E53D, I101A
VL: B8 VL
notes: as for B8

Kd (human EGFR-His antigen [4]): 120 nM
koff (human EGFR-His antigen [4]): 0.0144 s⁻¹
kon (human EGFR-His antigen [4]): 120000 M⁻¹ s⁻¹
B10: ZalH12 (antibody, human IgG1, kappa, V domains shown)
VH: B8 VH with E53D, Y57N
VL: B8 VL
notes: as for B8

Kd (human EGFR-His antigen [4]): 1.96 nM
koff (human EGFR-His antigen [4]): 0.000187 s⁻¹
kon (human EGFR-His antigen [4]): 95500 M⁻¹ s⁻¹
B11: ZalH13 (antibody, human IgG1, kappa, V domains shown)
VH: B8 VH with T31S, G33A, E53D
VL: B8 VL
notes: as for B8

Kd (human EGFR-His antigen [4]): 483 nM
koff (human EGFR-His antigen [4]): 0.0369 s⁻¹
kon (human EGFR-His antigen [4]): 76500 M⁻¹ s⁻¹
B12: ZalH8 (antibody, human IgG1, kappa, V domains shown)
VH: B8 VH with T31S, E53D, I101L
VL: B8 VL
notes: as for B8

Kd (human EGFR-His antigen [4]): 302 nM
koff (human EGFR-His antigen [4]): 0.0243 s⁻¹
kon (human EGFR-His antigen [4]): 80500 M⁻¹ s⁻¹
B13: ZalH3 (antibody, human IgG1, kappa, V domains shown)
VH: B8 VH with E53D, I101L
VL: B8 VL
notes: as for B8

Kd (human EGFR-His antigen [4]): 95.7 nM
koff (human EGFR-His antigen [4]): 0.00761 s⁻¹
kon (human EGFR-His antigen [4]): 79500 M⁻¹ s⁻¹
B14: ZalH7 (antibody, human IgG1, kappa, V domains shown)
VH: B8 VH with T31S
VL: B8 VL
notes: as for B8

Kd (human EGFR-His antigen [4]): 51.6 nM
koff (human EGFR-His antigen [4]): 0.00234 s⁻¹
kon (human EGFR-His antigen [4]): 45400 M⁻¹ s⁻¹
B15: ZalH9 (antibody, human IgG1, kappa, V domains shown)
VH: B8 VH with T31S, E53D, I101V
VL: B8 VL
notes: as for B8

Kd (human EGFR-His antigen [4]): 210 nM
koff (human EGFR-His antigen [4]): 0.0275 s⁻¹
kon (human EGFR-His antigen [4]): 131000 M⁻¹ s⁻¹
B16: ZalH14 (antibody, human IgG1, kappa, V domains shown)
VH: B8 VH with E53Y, Y57N, G61A
VL: B8 VL
notes: as for B8

Kd (human EGFR-His antigen [4]): 133 nM
koff (human EGFR-His antigen [4]): 0.0174 s⁻¹
kon (human EGFR-His antigen [4]): 131000 M⁻¹ s⁻¹
B17: ZalH10 (antibody, human IgG1, kappa, V domains shown)
VH: B8 VH with T31S, E53D, I101A
VL: B8 VL
notes: as for B8

From patent publication US20260232830A1 (JIANGSU HENGRUI PHARMACEUTICALS, published 2026)
